# Data: patent US20250271431A1 (NEW ERA MABS, published 2025)
# B1: hcAb A7.2 (clone A7_2), camelid full length IgG2 heavy chain only antibody (antibody, V domains shown)
# VH: DVQLQESGGGLVQPGKSLKLSCAAFGFAFSSTWMHWVRQAPGKGPEWVAFINPGGEKTMHADSVKGRFTISRDDAKNTLYLQMNNLKPEDTAVYYCAIERKDAFSWGQGTQVTVSS
# Molecular target: SARS-CoV-2 Spike protein (D614G, furin-cleavage site destroyed, FKO) on SARS-CoV-2 virus-like particles (VLPs) (SARS-CoV-2, UniProt P0DTC2 14-1273)
binder,measurement,value
B1,EC50 (read off the curve),~400 µg/mL
